Data: the RNAGym collection of RNA variant scans (doi:10.1073/pnas.2313332121)

B1: TPR t1 (parent)
chain: GACCAAUCUGCCCUCAGAGCUCGAGAACAUCUUCGGAUGCAGAGGAGGCAGGCUUCGGUGGCGCGAUAGCGCCAACGUCCUCAACCUCCAAUGCAUCCCACCACAUGAUGAUGCCUGAAGAGCCUUGGUUUUUUG

Variants of: B1
Experiment: polymerase ribozyme fitness, log enrichment relative to wild type (log ratio); higher = more active; in vitro selection for triplet polymerase activity
Outline: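 Mutant libraries for each subunit of a heterodimeric triplet polymerase ribozyme were made by PCR and then transcribed. Each library underwent one round of in vitro selection in triplicate: annealing with a biotinylated primer, the partner subunit and triplets, frozen incubation at −7 °C, gel excision of extended constructs, streptavidin-bead capture and RT-PCR. Input and output libraries were Illumina-sequenced, and only genotypes with ≥10 input reads and ≥1 read per output were kept. Fitness is the logarithm, base 2, of genotype enrichment over wild-type enrichment, computed from inverse-variance-weighted replicate averages.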

| Variant | polymerase ribozyme fitness (log ratio) |
| --- | --- |
| C20U G42A C124G U126C G135U | -1.98 |
| C20U G77A | -1.35 |
| C22U C40G G69U C79U C82G | -3.66 |
| A24G C56G C72U C86U U92A U129C | -6.8 |
| C22U G60A U96G | -4.57 |
| G23C G44U C88U A121G | -6.39 |
| C22U C73G C82A G120U U129A | -5.92 |
| C22A G45U C62U C73U | -5.77 |
| C22A G48U G63A C94G G120A | -5.73 |
| C22A A43G A46U C72U G113C U116G | -6.81 |
| A24G A119U | -2.54 |
| C22U A27C U87G | -5.65 |
| C22U G60C C104A | -5.43 |
| C22U U55G U106A | -3.56 |
| C22G A68G | -5.5 |
| C20U A100U | -2 |
| U21G C94U | -1.8 |
| C22G G42C G61U C89U | -5.61 |
| G23C A29C G48C U106G C114U | -8.24 |
| G23A G48A C86G | -6.91 |
| U21G A50U G69A A108G G110A U112G | -6.33 |
| C22U U38G C73U | -4.47 |
| C22U G44C | -4.2 |
| C20U A26G G71U U109A | -5.57 |

| Variant | polymerase ribozyme fitness (log ratio) |
| --- | --- |
| C20U G77A U87A G110A | -4.79 |
| C22U G69C C82A U112C A121C U132A | -3.46 |
| U21G C102A | -2.91 |
| U21C C64A C99G U112G | -8.45 |
| G23A G63U | -7.02 |
| C22G A41U G44U | -5.29 |
| C20U C22A | -3.94 |
| C22G U38A C64U G77U G120A | -3.99 |
| G23U G52A C53G C115U | -7.2 |
| C22G C94U C101G | -5.92 |
| A24G A46G G57U A100C | -4 |
| U21G G36C C72G | -2.78 |
| U21C C62U A84C | -0.909 |
| U21A A46G G128C G135C | -0.459 |
| C22U C62A | -4.41 |
| C20U C53A G71A A91G | -5.09 |
| C20U C70U | -1.7 |
| C20U G69A | -3.34 |
| C22U G61A | -3.53 |
| C22A G110A | -4.72 |
| C22G A90G | -3.06 |
| U21C G71U C86G G117A | -5.6 |
| C20U G57A | -1.75 |
| G23A C56U G110C | -5.74 |

| Variant | polymerase ribozyme fitness (log ratio) |
| --- | --- |
| C20U G69U G120C | -0.787 |
| A24C C56U C114G | -5.71 |
| C20U A43G C53A G110U G120U | -6.4 |
| G23C G58A G61A C94G A111C | -7.65 |
| C22U A27C A41U A50U G60C C82U | -6.98 |
| U21G G42U U112A | 0.673 |
| C22G G120A | -2.9 |
| C20U A43C C82U C98U | -4.43 |
| U21G C62G C101U | -5 |
| C20U U32C G71A U112C | -1.25 |
| C20U C56A | -1.52 |
| G23A G61U | -4.38 |
| C22A G48U C56U | -4.88 |
| C22G G23A G61U C89U C114U | -3.99 |
| C22A G57C C102A | -5.72 |
| G23U A24C C31G C72U A83C A90U G93A G107U U109A | -6.51 |
| U21C G44A A119G U125G | -1.38 |
| U21A | -0.29 |
| U21C | -0.0619 |
| U21G | -0.965 |
| C22G U96C | -3.36 |
| G23U C123U | -4.37 |
| C20U G42C C88G U112A G117A | -6 |
| C22U A26G G52C A105C C124U | -4.45 |

| Variant | polymerase ribozyme fitness (log ratio) |
| --- | --- |
| C22A A83G | -5.4 |
| C22U C94A | -4.02 |
| C20U G42A A91C | -4.6 |
| U21A C53G U54G U87A U133A | -3.43 |
| U21A C86G | -0.987 |
| U21A A27C A46G C76G | -2.54 |
| C22A G57C C86U | -4.83 |
| C22G G71U C89A | -5.9 |
| U21G C72A | -0.561 |
| U21A A27C A68G C94A | -6.24 |
| C20U C97G | -5.61 |
| C22A A95U | -4.83 |
| U21G A27U G60U C80A C123G | -6.74 |
| A24G C40A G117A C124G | -4.17 |
| C22G G69C G77U C101G C115U | -5.91 |
| C22U G51A G61C U109A G117C | -7.16 |
| C22A C31G A50C C70G A111C | -7.1 |
| C20U G48C U54G A74C | -3.11 |
| C20U G44U G93A | -3.1 |
| U21C G39C C56A | -1.44 |
| C22G G42C C115U | -3.85 |
| U21G U54C C56A G57C | -1.15 |
| C22U C82A U87G | -5.14 |
| C20U C34U | -5.22 |

| Variant | polymerase ribozyme fitness (log ratio) |
| --- | --- |
| U21A G60A A74U A100U U125G U132A | -0.987 |
| C22G C115A | -4.07 |
| C22G C40G G65U G69A C99A C101A C123U | -6.38 |
| G23C C34U U38A A46U C86G G110C | -8.09 |
| U21A G45U | -1.28 |
| U21A U59A C62A | -3.07 |
| U21G C73G A83G | -3.58 |
| C22U C53A C72U C98U C123U | -4.73 |
| C22G G69A | -3.64 |
| C20U C28G G45A G52U G69U C114U | -5.61 |
| C22U G69A C104G A111C | -7.35 |
| C22A A29G C40G G61U C72A A83U U131A | -5.02 |
| U21G G45U U92G | -5.73 |
| C22G C82G U96A | -3.98 |
| C20U G52A G60A | -2.6 |
| C22G G23A U125A G128U | -4.85 |
| C22A C73G C82A G120U U125C | -5.37 |
| U21A C49G U92C C104U | -2.2 |
| U21A C49G G61U U130C | -0.83 |
| C22G A41C G44C G69U C79G A90C | -5.69 |
| G23C A27G G110U | -6.38 |
| A24C G63A | -6.87 |
| C22G G110U U112G | -7.26 |
| U21A G63A | -1.05 |

| Variant | polymerase ribozyme fitness (log ratio) |
| --- | --- |
| A24C A37C A121U | -6.59 |
| C22U C49U C89A C123U | -6.02 |
| U21A G39C G77A | -1.28 |
| C22G G60U C85A | -4.53 |
| C22G U87A C114A | -2.89 |
| U21C G42A C88U C89A | -3.87 |
| C22G U112G | -2.35 |
| C20U G58A C73A G93C G117U | -5.31 |
| C22U G120C U130G | -4.69 |
| A24G A111G G122U | -5 |
| C22G C34G C102U C123A | -4.03 |
| C22A A75U U78A U116G | -4.77 |
| C22G C64U | -2.83 |
| C20U G135U | -1.97 |
| A24G A41G C88U U92A U112A U131C | -3.58 |
| C20U G60A G107C G120C | -5.52 |
| U21A A43C | -2.9 |
| C20U G71C A75G C82U U87G A90U A105G G113U | -3.34 |
| C22A A29G A50G U116G U129C | -5.9 |
| C22A A91G | -4.94 |
| C22G C72U | -3.13 |
| C22G A50U U96C A119G | -3.9 |
| G23A G39U C53A G69U G71A C115G G117A | -4.86 |
| C20U C40A G63U C123U | -3.75 |

| Variant | polymerase ribozyme fitness (log ratio) |
| --- | --- |
| G23A C79A G110C U125G | -6.79 |
| C20U C124U | -0.364 |
| C22G G61A G93A | -3.75 |
| C22G G110U U125G | -4.31 |
| U21C G60U G110A | -3.6 |
| C20U G52C C72U | -2.41 |
| A24C G120A | -4.02 |
| G23A C40A | -4.86 |
| G23A C82G | -5.43 |
| U21G C22A A27U | -4.41 |
| U21A C31U U78G C101G U106A G113C | -4.88 |
| C22A C85U | -4.92 |
| C22G G57A A68C C80A C101U C124A | -6.21 |
| C22U C53G G61A U106A A118G | -5.66 |
| C22U A66U G120A | -4.81 |
| U21C G48C A90U G117C G127C | -5.55 |
| U21G A50U | -2.82 |
| C22G C82U | -3.57 |
| C22A C86G | -4.67 |
| G23C C123A | -6.41 |
| U21A U59G U81G C82G C115U | -4.27 |
| C22A C40A G69A C86U C97G C99G U125A | -6.51 |
| C22U G120C | -2.63 |
